This experiment deals with human ALDH2 T244A substituted enzyme (human) (UniProt P05091). Put plainly: crystal structure.

Results on one substance are retold here after publication PMC3602351.

As usually defined, the stoichiometry N is a count of units in the complex or per binding partner.

Turning to “human ALDH2 T244A substituted enzyme (from UniProt P05091 18-517)”, the stoichiometry N worked out at 4.
